The source of these data is a protein production outcome set (Wang et al. 2014).

The data set is described as follows: label from the status in PepcDB records.

On to “MQSLHGNCLIAYARHKYILTMVNGEYRYFNGGDLVFADASQIRVDKCVENFVFVSRDTLSLFLPMLKEEALNLHAHKKVSSLLVHHCSRDIPVFQEVAQLSQNKNLRYAEMLRKRALIFALLSVFLEDEHFIPLLLNVLQPNMRTRVCTVINNNIAHEWTLARIASELLMSPSLLKKKLREEETSYSQLLTECRMQRALQLIVIHGFSIKRVAVSCGYHSVSYFIYVFRNYYGMTPTEYQERSAQRLSNRDSAASIVAQGNFYGTDRSAEGIRL”, for which the protein production result is listed as “failed”.
For “MQSPPHDPASALAIRNHYRQSQSRAARLRLLVDTGQELIQLPPEAMRKCVLQRACAFVAMDHGLLLEWGADNGVQTTARHGSKERLSTLETTADPLAIGPQWLERPGTHLPCVLLLPLRGADEGSFGTLVLANSVAISAPDGEDIESLQLLATLLAAHLENNRLLEALVARDRTMSQLVRQLFTAQEDERKRVAYDLHDGLAQTLAGLHQRLQGFAGRCPELPAQLDADLQAILKLAQHCVGEGRQLISGLRPAVLDDFGLWQAVDKEADRLREAGIIVQWTSQSLERLPSHLEIALFRIAQEGINNVLKHANASCVELALELSDGNVSLRLQDNGRGFITEKPINGTGVQKLGLVAMQERASLLGGRLTCVSRPGRGTRLRTIVPFTADKAIT”, the protein production result was “failed”.
Take “MQSRSDGSWVLTLSRRLDAPSGEFAGVVLVTLQLKYFQNYYSTFEVGPHGTIGMTNDDGIVMVRRPDKQGVIGTSIAGTSIYVTMRARKHGTATYRSPIDRVERISSFAPARPYPLTVLTGFSVDDALANWRETARQRIVVAALGCTLLLGVGIWLDLQLRRMHRNEAKLSTEAWVDALTGIANRRAFDHRLSRALQDAVRLEAPLSVLMIDVDHFKLYNDTYGHVNGDACLRLIAGAIAGCSRRSEDLAARYGGEEFGMILPHTDAAGALRLADAVRNAVAELGLMHLSSPTSAHVTVSIGAATFEPGEAPLSPNAIVHDADSALYRAKQKGRNRTSA”: the protein production result is “failed”.
“MQSYAADLIALGLLFLTGLAADQLGARSRLPRVTLLLICGLLAGSAGFDLIPESLAALYPIISVIALSMVAFLLGGELSLRTLSGHGRAIVVISVMVVLVTQLTVSAGLAMIGMPLAAALMVGALATATDPAATLDVIRQGRASGDFPRRLKGIVAIDDAWGVLLFGLVAVLAGAVEGNGSAHGLLGGALVEIAGSVALGLAVGLPGASLTGRLSGGEPLRIEALGLVFLTAGLSLWLDLSYLIAGMTAGAVIVNLAHHHKRAFREIEHIEWPFMIVFFILAGASLDLSALWAVGPLLMGYVALRVLGRVLGGWAGAALAATARGERPWYGPALLPQAGVAIGMALIAGDLFPQYADMITALAIGATVVFELAGPLAAAYALRRVRDSRDQSAA”: the protein production result is reported as “failed”.
Then “MQSYFSPLLDAMHAWLMLQLPGPVAGALLGGLHALVFIPLAALAWRVLSNESRRAQWVPLFALAGMCSAVFLSELGNTMGDTASAIPVLAALAVVLLAQFRARNGLHVVHLWAVAGALIGLAVALKLTNALYALALVPAVLCDGGRLRSRVLALSVLAGVALLVLLLVAGPWYWQVWQHLGNPLFPQFNGVFKSPLAQPVSIADVRWLPRTIGEQLIWPLLFTLKPQRIGDLGLVQAGWAVLYGVVAIAAGRALVRRPVRAAAVDRAAIVLLVFFGVAYALWQAIFSIHRYLVVLELLAPLVLWIVCRHAFAARANRKAAWLIGACALVAVVGWKDWGHESWARESFQVEQPVLGNPAASSVLLVGDEPQSWRVPLLPSQARYIGVATNISETDHYRQRVRALIAERPQLYAMLGAARDKQQVRIDRMNRLAQQFGWERQPGCSRLRWLVARGLRAELDTSQPDRCVLAIPKGKALDIAAADQAVREAAQQRLAAYGLTLDPARCRTLSSQVGQAVYPYQFCQLALPN”, with “failed”; and “MQTIYRLKEPQIDREEDVRTIIQTFLFQFSEKAYGGPSFNRPACCFAPHIYGAGKTFVGQNFSAYLNIFAERECSNAQTFQQLHSSNDNPQPSELKVPWKHFAEKTLSVCFKLEESFSDAPFPSFRKALMYNIILNS”, with “not failed”.
Then “MQTKEKLASLSYLAVKSLLYELNLTPKPGLVDCHNNGAHNDMDFYTFLDSILSLSPFFKKYIEVGWLYHNESPQYLFNQLRKLGIEAEAAMFSATERVNTHKGINFSFALLLGATGSYLAKHIELIQEKRRFMPQDSLTICHLAGEMSMHLIQNDLSHVETKRNLTYGEKLFLQYGLKGLRGEASQGYPSLTQKALPFFRNELLKKQDIQISQLKLLLYLMTFIEDSNIIHRGGIKSWKKVQQEAQTLLEKDLPPYQLKEQLNSYNQILTDRHLSPGGAADLLSLTLYFSFLEQLI”, with “failed”; and “MQTKKNEIWVGIFLLAALLAALFVCLKAANVTSIRTEPTYTLYATFDNIGGLKARSPVSIGGVVVGRVADITLDPKTYLPRVTLEIEQRYNHIPDTSSLSIRTSGLLGEQYLALNVGFEDPELGTAILKDGDTIQDTKSAMVLEDLIGQFLYGSKGDDNKNSGDAPAAAPGNNETTEPVGTTK”, with “failed”; and “MQTLREFTRKTKRGNILKIVREHYLRDDIGCGSELCRECFQNEVYQLTSQHANKSTLFKFPHYLVLDTNVVLDQIDVLEEDVLRNVVVLTTVLNEVKHRSSAIYKRFNEIVHDRTRNFYVFVNEHHKETYADREPDETANDRNDRAIRLATKWYDDHLQASQSSKEFERSGKAATRVVLLTDDAANRAKAEAEGILVTTAAEYVKSLEDFPLLMDKLSHKTFDSEKNGLPQYPPHLSMKELLEGLRQNKLLQGTFQASRENYLEGTVNVEKFEKGILIQGRESLNRAVDGDLVAVELLPEAEWSAPSEIVLEEKNVYADEVPSEERAKDENEMLNQVRAAALSAERTPTGRIVGIVRRKWRQYCGILQPSLIEDTNRHIFVPADRKIPRIRIETRQAAMLQNQRIIVTIDTWPRNSRYPHGHFVRSLGPLGDMATENEVILLEHDVPHCKFSDEVLSFLPKMPWTITDEDYSKRVDLRDLYICSVDPPGCTDIDDALHCKELPNGNLEVGVHIADVSHFIRPGNALDMEAAARGTTVYLVGKRIDMVPELLSSNLCSLVGGVERFAFSCVWEVDNEANVLSKRFHKSVIKSKRAMTYEEAQNIIDDATQQNEIAKSLRNLNRLAKILKKRRMDNGALVLASPEIRFQVDSETHEPLEVEVKQMRETNSMVEEFMLLANITVAEHIATEFSECAVLRRHPRPPPTNFDPLVKSARYQGFQVDINSGLELSHSLDKCVKADNPYFNTMIRILTTRCMMQAVYFISGSLQKEEFFHYGLAAPIYTHFTSPIRRYSDIMVHRLLAASIGADSTYAQLLDRKSNEELCHNLNYRHKMAQYAGRASVALNTHLFFRGKEEDEEGYVLFVRKNALQVLIPKYGLEGTLYLKSDKDGKDGVERVKSEIVFTFNEEDHTQRCGDVVFHSFDPVTVRLSLDSSNVQHEKLIFRLVKPYIKGFSVETTTEGTDSQAVSAAPPSKKTKKDKKKK”, with “failed”.
Regarding “MQTNLLSRPTSAKSTSMSDKINHPQLCQWLESVAISRDKQAFTHLFQFFAPKILRIARGKFPNEAQANEVVQDTMSNVWRKAHLYNQDKGAATTWVYTVMRNVTFDMLRKIQGNKEDNLSDDIWPIAESMSIENEIFDDHLEHANLLSVIEELPQAQQDVVKGFYFREMSQEQLAVHLHLPLGTVKSRLRLALGKLKVQLGEKHD”, the protein production result is “failed”.
Turning to “MQTPPRLVAIGGLSGSGKTTIAEALAAHVGAPPGARIVESDRIRKAMHGVPAETRLPDNAYRPDVSDRVYNEMTWRAGLILSEGGSVVADAVFDRPADRERIEKAARDRGIPFFGFWLEADPLVLWQRVSERKGGPSDATVDILSRQLQRKAGLEHHHHHH”, the protein production result is listed as “failed”.
For the sequence “MQTQLTEEMRQNARALEADSILRACVHCGFCTATCPTYQLLGDELDGPRGRIYLIKQVLEGNEVTLKTQEHLDRCLTCRNCETTCPSGVRYHNLLDIGRDIVEQKVKRPLPERILREGLRQVVPRPAVFRALTQVGLVLRPFLPEQVRAKLPAETVKAKPRPPLRHKRRVLMLEGCAQPTLSPNTNAATARVLDRLGISVMPANEAGCCGAVDYHLNAQEKGLARARNNIDAWWPAIEAGAEAILQTASGCGAFVKEYGQMLKNDALYADKARQVSELAVDLVELLREEPLEKLAIRGDKKLAFHCPCTLQHAQKLNGEVEKVLLRLGFTLTDVPDSHLCCGSAGTYALTHPDLARQLRDNKMNALESGKPEMIVTANIGCQTHLASAGRTSVRHWIEIVEQALEKE”, the protein production entry was “failed”.
With “MQVEETSIEEIQTKIKRLNSKAGQMKMDLHDLAEGLPTDYTQLMDVAAATYEIYRQLDELKQELKKLENAK” the entry was “failed”.
Turning to “MQVHYYGGTAEAAGTSEETVETPTGLSVNQLLDHLRNLHPGLGRLLGVCTLFVDGSAVRGEQIVPARAQVEVLPPFAGG”, the protein production entry is “failed”.
For “MQVIKQKLTATCAQLTGYLHQPDTNAHQTNLPAIIIVPGGSYTHIPVAQAESLAMAFAGHGYQAFYLEYTLLTDQQPLGLAPVLDLGRAVNLLRQHAAEWHIDPQQITPAGFSVGGHIVALYNDYWATRVATELNVTPAMLKPNNVVLGYPVISPLLGFPKDDATLATWTPTPNELAADQHVNSDNQPTFIWTTADDPIVPATNTLAYATALATAKIPYELHVFKHGPHGLALANAQTAWKPDANQPHVAHWLTLALEWLADNR”, the protein production result is on record as “not failed”.
Regarding “MQVLVVGANGQVGRLLMQQLLAAGDTPVAGLKPTEDGEEWADQGLMVCKMDLLAKPEQLASAIMGMDAVIFAAGSGGQTKADMTLLIDLDGAVKTMQAAEIAGVSRFLMISMLFAEDRNRWADPLKPLYVAKFYADNWLVRQTHLDYTIVQPGALSFHAGTGLIKSDPLAVGSVPRADLAAFLVAALHAPQTIGKTIPLLSGDQSIAQVIDQL”, the protein production result is on record as “failed”.
Take “MQVSQANLNLNFDANSLQRGKRYFSQGRVQNLVRETEGMSIQVLRAEVSGSQRQLYITEVRFDRYLPGKINTFCSCPVGFRCKHAAAVILQANHEAGLSAEKYESEADTRYKYPTAETWLEQAASVFSSIDNASNPECLAYLLHIEPHRSQQTLSVNKVRRRKSGEYSRGSKTTVWSRTNLEYDRPKYLRESDIAPLTWLNALPTAFRVSPVLEGTTGAYFIESALKTRRFFLESTQNPPLQLGETLESGFEWMQLPDKQHWQLVSKALPSHIRLLNTSPAYYLDEKELLIGRVENSLDARTTALLQQCPPLAESQLQQALPDLAPILEKAGAVLPESFQVPSMVQAAPQPILQLYSLQHPAPGTLPLLMARLMFSYEGHRVAFSEQEPRVLVDGNNGPLLVIRDEDAEIEWLHRDLPDFKMAGTMTDHLEADMVNALPYGSFLDFTLPTRNQWLDFIAFDLPRLDAGGWQIEMDESFDIPVIEIDQLHGSLKPDEESPGWFDVEVGIDYNGTQIDLIPLLQQALVYLDLNNDSDDALPETLWLHNGDALIRVVSDRIRPLVRTLLSLLGKERGGKLRLPKLDAAQVMGDLAADWQCSAELRNLSEKLTSFQALNHVPVPSEVRAELRHYQQDGLNWLMFLREFGLGGVLADDMGLGKTLQTLACIQAEKTAGRLTAPALVVCPTTLIANWEAEAEKFTPGLKRLVIHGQRRKPFFDMVAEADLVITSYPLLHRDLEQHQNQSYSLAFFDEAQHLKNPATVTSKAARRLPAENRIALTGTPMENHLGELWALFDLILPGYLADQKIFREHYRKPIEEQGNQSRYAELSRRVRPFMLRRTKDQVTPELPEKTEIVRHVELNRQQKDLYETIRATMDKRIRKLLAEKGAARSQIEILDALLKLRQICCHPALLNPEETAGSAKLDSLMEMLEQLLDEGRKVIIFSQFTSMLALIETTLKAAGIGYEKLTGQTRDRATPVKRFQNGESPVFLISLKAGGTGLNLTAADCVIHYDPWWNPAAEQQATDRAWRIGQDKPVFVYRLITEGTVEERIQALQARKSQLADGLYGKADTFSSAITADDISVLFEK”: the protein production result is listed as “failed”.
In the case of “MQYATLELNNAFKVLFSLRQVQAAEMVIAPGDREGGPDNRHRGADQWLFVVDGAGEAIVDGHTQALQAGSLIAIERGQAHEIRNTGDTPLKTVNFYHPPAYDAQGEPLPAGEG”, the protein production result is on record as “not failed”.
In the case of “MQYLIVKYSHQIFVTITILVFNIRFFLLWKNPEKPLAGFWKALPHLNDTMLLFTGLWLMKITHFSPFNAPWLGTKILLLLAYIALGMMMMRARPRSTKFYTVYLLAMCCVACIVYLAKTKVLPF”, the protein production entry is listed as “failed”.
